Substrate in data set [1]: O=C(Cc1ccccc1)NC1Cc2ccc(C(=O)O)cc2OC1=O
The data set can be described thus: (§1) Km for TEM-2 beta-lactamase hydrolysis.

Substrate in data set [2]: O=C(Cc1ccccc1)NC1Cc2cccc(C(=O)O)c2OC1=O
Described as §1.

Substrate in data set [3]: O=C(O)c1ccc2c(c1)OC(=O)C(C(=O)NCc1ccccc1)C2
The description is as §1.

Substrate in data set [4]: O=C(O)c1cccc2c1OC(=O)C(C(=O)NCc1ccccc1)C2
Described as §1.

Substrate in data set [5]: CC(=O)OCC1=C(C(=O)O)N2C(=O)[C@@H](NC(=O)Cc3cccs3)[C@H]2SC1
Put plainly: (§2) Km for Enterobacter cloacae P99 Beta-lactamase hydrolysis.

Substrate in data set [6]: O=C(Cc1ccccc1)NC1Cc2ccc(C(=O)O)cc2OC1=O
Described as §2.

Substrate in data set [7]: O=C(Cc1ccccc1)NC1Cc2cccc(C(=O)O)c2OC1=O
The description is as §2.

Substrate in data set [8]: O=C(O)c1ccc2c(c1)OC(=O)C(C(=O)NCc1ccccc1)C2
The data set is described as §2.

Substrate in data set [9]: O=C(O)c1cccc2c1OC(=O)C(C(=O)NCc1ccccc1)C2
The description is as §2.

Substrate in data set [10]: CC(=O)OCC1=C(C(=O)O)N2C(=O)[C@@H](NC(=O)Cc3cccs3)[C@H]2SC1
The data set can be described thus: (§3) Km for OXA-1 beta-lactamase hydrolysis.

Substrate in data set [11]: O=C(Cc1ccccc1)NC1Cc2cccc(C(=O)O)c2OC1=O
The data set is described as §3.

Substrate in data set [12]: O=C(O)c1cccc2c1OC(=O)C(C(=O)NCc1ccccc1)C2
Described as §3.

Substrate in data set [13]: CC(=O)OCC1=C(C(=O)O)N2C(=O)[C@@H](NC(=O)Cc3cccs3)[C@H]2SC1
Put plainly: (§4) Km for Staphylococcus aureus PC1 Beta-lactamase hydrolysis.

Substrate in data set [14]: O=C(Cc1ccccc1)NC1Cc2cccc(C(=O)O)c2OC1=O
The data set is described as §4.

Substrate in data set [15]: O=C(O)c1ccc2c(c1)OC(=O)C(C(=O)NCc1ccccc1)C2
Described as §4.

Substrate in data set [16]: O=C(O)c1cccc2c1OC(=O)C(C(=O)NCc1ccccc1)C2
Described as §4.

This note sets out measurements from ChEMBL document CHEMBL1137898, “Benzopyranones with retro-amide side chains as (inhibitory) beta-lactamase substrates” (Bioorg Med Chem Lett, 2004).

B1: Beta-lactamase TEM (Escherichia coli), P62593 (protein)
chain: MSIQHFRVALIPFFAAFCLPVFAHPETLVKVKDAEDQLGARVGYIELDLNSGKILESFRPEERFPMMSTFKVLLCGAVLSRVDAGQEQLGRRIHYSQNDLVEYSPVTEKHLTDGMTVRELCSAAITMSDNTAANLLLTTIGGPKELTAFLHNMGDHVTRLDRWEPELNEAIPNDERDTTMPAAMATTLRKLLTGELLTLASRQQLIDWMEADKVAGPLLRSALPAGWFIADKSGAGERGSRGIIAALGPDGKPSRIVVIYTTGSQATMDERNRQIAEIGASLIKHW
Turning to B1, the Km in data set [1] was greater than 1200 µM; in [2], 50 µM; in data set [3] it was greater than 200 µM; in data set [4], 290 µM.

B2: Beta-lactamase (Enterobacter cloacae), P05364 (protein)
chain: MMRKSLCCALLLGISCSALATPVSEKQLAEVVANTITPLMKAQSVPGMAVAVIYQGKPHYYTFGKADIAANKPVTPQTLFELGSISKTFTGVLGGDAIARGEISLDDAVTRYWPQLTGKQWQGIRMLDLATYTAGGLPLQVPDEVTDNASLLRFYQNWQPQWKPGTTRLYANASIGLFGALAVKPSGMPYEQAMTTRVLKPLKLDHTWINVPKAEEAHYAWGYRDGKAVRVSPGMLDAQAYGVKTNVQDMANWVMANMAPENVADASLKQGIALAQSRYWRIGSMYQGLGWEMLNWPVEANTVVEGSDSKVALAPLPVAEVNPPAPPVKASWVHKTGSTGGFGSYVAFIPEKQIGIVMLANTSYPNPARVEAAYHILEALQ
As for B2, the Michaelis constant (Km) in [5] amounted to 9 µM; in data set [6], 290 µM; in [7], 620 µM; in data set [8] it was 430 µM; in [9] it was 0.2 µM.

B3: Beta-lactamase OXA-1 (Escherichia coli), P13661 (protein)
chain: MKNTIHINFAIFLIIANIIYSSASASTDISTVASPLFEGTEGCFLLYDASTNAEIAQFNKAKCATQMAPDSTFKIALSLMAFDAEIIDQKTIFKWDKTPKGMEIWNSNHTPKTWMQFSVVWVSQEITQKIGLNKIKNYLKDFDYGNQDFSGDKERNNGLTEAWLESSLKISPEEQIQFLRKIINHNLPVKNSAIENTIENMYLQDLDNSTKLYGKTGAGFTANRTLQNGWFEGFIISKSGHKYVFVSALTGNLGSNLTSSIKAKKNAITILNTLNL
In the case of B3, the Michaelis constant (Km) came to 10 µM in data set [10], 13.9 µM in [11] and 7.4 µM in data set [12].

B4: Beta-lactamase (Staphylococcus aureus), P00807 (protein)
chain: MKKLIFLIVIALVLSACNSNSSHAKELNDLEKKYNAHIGVYALDTKSGKEVKFNSDKRFAYASTSKAINSAILLEQVPYNKLNKKVHINKDDIVAYSPILEKYVGKDITLKALIEASMTYSDNTANNKIIKEIGGIKKVKQRLKELGDKVTNPVRYEIELNYYSPKSKKDTSTPAAFGKTLNKLIANGKLSKENKKFLLDLMLNNKSGDTLIKDGVPKDYKVADKSGQAITYASRNDVAFVYPKGQSEPIVLVIFTNKDNKSDKPNDKLISETAKSVMKEF
Regarding B4, the Michaelis-Menten constant (Km) was 1 µM in data set [13], 0.3 µM in data set [14], greater than 200 µM in data set [15] and 1.8 µM in data set [16].
